From the supplement of paper PMC7877785
± gives the uncertainty stated by the source.

Test: self-splicing fitness, log relative to wild type (ln ratio); higher = more splicing; Tetrahymena group I intron in knt gene, E. coli kanamycin selection, DiMSum; sequences stand for … in CUCUCU…GGAGGGAAAAGUUAUCAGGCAUGCACCUGGUAGCUAGUCUUUAAACCAAUAGAUUGCAUCGGUUUAAAAGGCAAGACCGUCAAAUUGCGGGAAAGGGGUCAACAGCCGUUCAGUACCAAGUCUCAGGGGAAACUUUGAGAUGGCCUUGCAAAGGGUAUGGUAAUAAGCUGACGGACAUGGUCCUAACCACGCAGCCAAGUCCUAAGUCAACAGAUCUUCUGUUGAUAUGGAUGCAGUUCACAGACUAAAUGUCGGUCGGGGAAGAUGUAUUCUUCUCAUAAGAUAUAGUCGGACCUCUCCUUAAUGGGAGCUAGCGGAUGAAGUGAUGCAACACUGGAGCCGCUGGGAACUAAUUUGUAUGCGAAAGUAUAUUGAUUAGUUUUGGAGUACUCGUGGUCG
Summary of the method: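 Fitness was computed with DiMSum as the error-weighted combination of replicate fold changes, kanamycin versus none, each normalised to wild type. The library randomised all eight intron nucleotides of the P1ex region, with the intron placed in the knt kanamycin-resistance gene on pET-22b(+) in E. coli BL21(DE3). Six replicate transformations were grown overnight at 37°C or 30°C on LB agar with or without 25 μg/mL kanamycin, plus 100 μg/mL carbenicillin, 50 μM IPTG and 0.2% rhamnose. Pooled colonies were amplicon-sequenced on an Illumina HiSeq 2500.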

Row | Sequence | self-splicing fitness (ln) (30 °C) | self-splicing fitness (ln) (37 °C)
1 | ACCAAGCAAUAUUACGUGGG | -3.46 ± 0.13 | -2.4 ± 0.11
2 | ACCAAGCAAUAUUACGUUAU | -2.95 ± 0.087 | -2.04 ± 0.093
3 | ACCAAGCAAUAUUACGUUGG | -3.54 ± 0.12 | -2.22 ± 0.14
4 | ACCCAGCAAUAUUACGAACA | -0.802 ± 0.11 | -1.35 ± 0.13
5 | ACCCAGCAAUAUUACGACAA | -1.66 ± 0.1 | -1.09 ± 0.1
6 | ACCCAGCAAUAUUACGACCG | -2.05 ± 0.17 | -0.527 ± 0.18
7 | ACCCAGCAAUAUUACGAGUA | -2.39 ± 0.12 | -1.02 ± 0.079
8 | ACCCAGCAAUAUUACGCGGC | -2.93 ± 0.17 | -2.76 ± 0.26
9 | ACCCAGCAAUAUUACGCGUU | -0.424 ± 0.049 | 0.328 ± 0.066
10 | ACCCAGCAAUAUUACGCUCA | -0.397 ± 0.065 | -0.324 ± 0.087
11 | ACCCAGCAAUAUUACGGAAU | -0.884 ± 0.054 | -0.0542 ± 0.07
12 | ACCCAGCAAUAUUACGGCCU | -0.518 ± 0.052 | 0.0547 ± 0.067
13 | ACCCAGCAAUAUUACGGCUA | -0.684 ± 0.1 | 0.23 ± 0.1
14 | ACCCAGCAAUAUUACGUAAG | -1.13 ± 0.049 | -0.47 ± 0.069
15 | ACCCAGCAAUAUUACGUCGU | -0.24 ± 0.039 | -0.318 ± 0.051
16 | ACCCAGCAAUAUUACGUGCU | -4.5 ± 0.23 | -1.67 ± 0.12
17 | ACCCAGCAAUAUUACGUGUC | -3.36 ± 0.099 | -1.75 ± 0.099
18 | ACCCAGCAAUAUUACGUUUA | -1.57 ± 0.066 | -1.01 ± 0.072
19 | ACCGAGCAAUAUUACGAACU | -2.13 ± 0.13 | -0.803 ± 0.14
20 | ACCGAGCAAUAUUACGAAUG | -2.51 ± 0.16 | -2.7 ± 0.44
21 | ACCGAGCAAUAUUACGAGGU | -2.42 ± 0.23 | -0.758 ± 0.2
22 | ACCGAGCAAUAUUACGAUGC | -1.97 ± 0.14 | -1.56 ± 0.14
23 | ACCGAGCAAUAUUACGCAGU | -3.67 ± 0.16 | -2.48 ± 0.16
24 | ACCGAGCAAUAUUACGCAUA | -2.42 ± 0.21 | -2.57 ± 0.2
25 | ACCGAGCAAUAUUACGCGCA | -2.06 ± 0.1 | -0.82 ± 0.078
26 | ACCGAGCAAUAUUACGCGUC | -3.17 ± 0.15 | -2.18 ± 0.22

Row | Sequence | self-splicing fitness (ln) (30 °C) | self-splicing fitness (ln) (37 °C)
27 | ACCGAGCAAUAUUACGCUAU | -2.77 ± 0.14 | -2.26 ± 0.14
28 | ACCGAGCAAUAUUACGCUCC | -2.85 ± 0.39 | -1.79 ± 0.44
29 | ACCGAGCAAUAUUACGGCAU | -1.09 ± 0.09 | -0.529 ± 0.11
30 | ACCGAGCAAUAUUACGGCCG | -2.57 ± 0.09 | -1.09 ± 0.1
31 | ACCGAGCAAUAUUACGGUAA | -2.6 ± 0.18 | -1.7 ± 0.12
32 | ACCGAGCAAUAUUACGGUGA | -3.07 ± 0.18 | -1.48 ± 0.13
33 | ACCGAGCAAUAUUACGGUUG | -3.88 ± 0.21 | -2.51 ± 0.16
34 | ACCGAGCAAUAUUACGUCCG | -4.36 ± 0.24 | -1.5 ± 0.14
35 | ACCGAGCAAUAUUACGUGUG | -2.5 ± 0.08 | -1.79 ± 0.079
36 | ACCGAGCAAUAUUACGUUCA | -1.34 ± 0.13 | -0.705 ± 0.1
37 | ACCGAGCAAUAUUACGUUUC | -4.37 ± 0.29 | -2.94 ± 0.32
38 | ACCUAGCAAUAUUACGAAUA | -2.75 ± 0.15 | -2.94 ± 0.18
39 | ACCUAGCAAUAUUACGACAC | -0.951 ± 0.1 | -0.536 ± 0.17
40 | ACCUAGCAAUAUUACGACCG | -1.16 ± 0.13 | 0.144 ± 0.12
41 | ACCUAGCAAUAUUACGAGGA | -2.16 ± 0.12 | -0.9 ± 0.12
42 | ACCUAGCAAUAUUACGAGUA | -2.47 ± 0.14 | -1.16 ± 0.12
43 | ACCUAGCAAUAUUACGAGUC | -2.53 ± 0.3 | -2.78 ± 0.48
44 | ACCUAGCAAUAUUACGAUAU | -1.58 ± 0.092 | -0.443 ± 0.12
45 | ACCUAGCAAUAUUACGAUGC | -1.22 ± 0.078 | -0.172 ± 0.081
46 | ACCUAGCAAUAUUACGCACU | -0.127 ± 0.085 | 0.3 ± 0.12
47 | ACCUAGCAAUAUUACGCAGU | -2.58 ± 0.17 | -1.53 ± 0.19
48 | ACCUAGCAAUAUUACGCAUA | -2 ± 0.2 | -1.85 ± 0.16
49 | ACCUAGCAAUAUUACGCGCA | -0.569 ± 0.08 | -0.709 ± 0.087
50 | ACCUAGCAAUAUUACGCGCC | -0.396 ± 0.09 | -0.477 ± 0.12
51 | ACCUAGCAAUAUUACGCGCG | -0.971 ± 0.13 | 0.377 ± 0.13
52 | ACCUAGCAAUAUUACGCGGC | -3.53 ± 0.33 | -1.38 ± 0.17

Row | Sequence | self-splicing fitness (ln) (30 °C) | self-splicing fitness (ln) (37 °C)
53 | ACCUAGCAAUAUUACGCGGU | -4.32 ± 0.46 | -2.48 ± 0.31
54 | ACCUAGCAAUAUUACGCGUC | -2.91 ± 0.27 | -0.412 ± 0.14
55 | ACCUAGCAAUAUUACGCUAC | -2.93 ± 0.13 | -2.02 ± 0.15
56 | ACCUAGCAAUAUUACGCUCA | -1.71 ± 0.14 | -0.169 ± 0.17
57 | ACCUAGCAAUAUUACGCUGC | -2.42 ± 0.12 | -1.06 ± 0.13
58 | ACCUAGCAAUAUUACGCUUU | -1.26 ± 0.055 | -0.293 ± 0.081
59 | ACCUAGCAAUAUUACGGGAU | -2.07 ± 0.1 | -0.904 ± 0.1
60 | ACCUAGCAAUAUUACGGUCG | -3.53 ± 0.17 | -2.11 ± 0.14
61 | ACCUAGCAAUAUUACGUAAA | -2.13 ± 0.096 | -1.47 ± 0.12
62 | ACCUAGCAAUAUUACGUGAA | -2.1 ± 0.097 | -1.18 ± 0.12
63 | ACCUAGCAAUAUUACGUGCA | -2.89 ± 0.12 | -1.25 ± 0.1
64 | ACGAAGCAAUAUUACGACAA | -0.701 ± 0.2 | -0.985 ± 0.19
65 | ACGAAGCAAUAUUACGAGCG | -0.87 ± 0.075 | -0.411 ± 0.12
66 | ACGAAGCAAUAUUACGAGUA | -3.49 ± 0.21 | -2.73 ± 0.17
67 | ACGAAGCAAUAUUACGAUAA | -1.62 ± 0.15 | -1.39 ± 0.14
68 | ACGAAGCAAUAUUACGAUCA | -1.08 ± 0.12 | -0.536 ± 0.12
69 | ACGAAGCAAUAUUACGAUUA | -1.36 ± 0.077 | -0.917 ± 0.072
70 | ACGAAGCAAUAUUACGCACG | -3.26 ± 0.18 | -2.22 ± 0.17
71 | ACGAAGCAAUAUUACGCCAU | -4.46 ± 0.39 | -3.02 ± 0.26
72 | ACGAAGCAAUAUUACGCGCA | -0.419 ± 0.068 | 0.542 ± 0.1
73 | ACGAAGCAAUAUUACGGCAU | -0.981 ± 0.1 | 0.219 ± 0.11
74 | ACGAAGCAAUAUUACGGCUG | -0.78 ± 0.052 | -0.0127 ± 0.084
75 | ACGAAGCAAUAUUACGGGAU | -3.47 ± 0.13 | -1.8 ± 0.14
76 | ACGAAGCAAUAUUACGGGGU | -3.47 ± 0.15 | -2.33 ± 0.17
